Data taken from publication PMC7808410 (Nature methods, 2021).

B1: E. coli OmpC outer membrane osmoporin channel (natural protein)
chain: AEVYNKDGNKLDLYGKVDGLHYFSDNKDVDGDQTYMRLGFKGETQVTDQLTGYGQWEYQIQGNSAENENNSWTRVAFAGLKFQDVGSFDYGRNYGVVYDVTSWTDVLPEFGGDTYGSDNFMQQRGNGFATYRNTDFFGLVDGLNFAVQYQGKNGNPSGEGFTSGVTNNGRDALRQNGDGVGGSITYDYEGFGIGGAISSSKRTDAQNTAAYIGNGDRAETYTGGLKYDANNIYLAAQYTQTYNATRVGSLGWANKAQNFEAVAQYQFDFGLRPSLAYLQSKGKNLGRGYDDEDILKYVDVGATYYFNKNMSTYVDYKINLLDDNQFTRDAGINTDNIVALGLVYQF
B2: E. coli OmpF porin channel (natural protein)
chain: AEIYNKDGNKVDLYGKAVGLHYFSKGNGENSYGGNGDMTYARLGFKGETQINSDLTGYGQWEYNFQGNNSEGADAQTGNKTRLAFAGLKYADVGSFDYGRNYGVVYDALGYTDMLPEFGGDTAYSDDFFVGRVGGVATYRNSNFFGLVDGLNFAVQYLGKNERDTARRSNGDGVGGSISYEYEGFGIVGAYGAADRTNLQEAQPLGNGKKAEQWATGLKYDANNIYLAANYGETRNATPITNKFTNTSGFANKTQDVLLVAQYQFDFGLRPSIAYTKSKAKDVEGIGDVDLVNYFEVGATYYFNKNMSTYVDYIINQIDSDNKLGVGSDDTVAVGIVYQF
B3: E. coli glutamate decarboxylase GadB (enzyme)
chain: MDKKQVTDLRSELLDSRFGAKSISTIAESKRFPLHEMRDDVAFQIINDELYLDGNARQNLATFCQTWDDENVHKLMDLSINKNWIDKEEYPQSAAIDLRCVNMVADLWHAPAPKNGQAVGTNTIGSSEACMLGGMAMKWRWRKRMEAAGKPTDKPNLVCGPVQICWHKFARYWDVELREIPMRPGQLFMDPKRMIEACDENTIGVVPTFGVTYTGNYEFPQPLHDALDKFQADTGIDIDMHIDAASGGFLAPFVAPDIVWDFRLPRVKSISASGHKFGLAPLGCGWVIWRDEEALPQELVFNVDYLGGQIGTFAINFSRPAGQVIAQYYEFLRLGREGYTKVQNASYQVAAYLADEIAKLGPYEFICTGRPDEGIPAVCFKLKDGEDPGYTLYDLSERLRLRGWQVPAFTLGGEATDIVVMRIMCRRGFEMDFAELLLEDYKASLKYLSDHPKLQGIAQQNSFKHT

Molecular target: the molecule itself
Assay: cryo-EM structure

| Protein | stoichiometry N |
| --- | --- |
| B1 | 3 |
| B2 | 3 |
| B3 | 6 |
